T1: FILIP1 CT-GFP (expressed in HEK293 cells) (UniProt Q7Z7B0-2 776-1177)
T1 construct: FILIP1 carboxy-terminus (CT); also called FILIP1-GFP CT; wild-type FILIP1 CT-GFP; source: HEK293 (HEK293T), transfected, in lysate
T1 sequence (looked up): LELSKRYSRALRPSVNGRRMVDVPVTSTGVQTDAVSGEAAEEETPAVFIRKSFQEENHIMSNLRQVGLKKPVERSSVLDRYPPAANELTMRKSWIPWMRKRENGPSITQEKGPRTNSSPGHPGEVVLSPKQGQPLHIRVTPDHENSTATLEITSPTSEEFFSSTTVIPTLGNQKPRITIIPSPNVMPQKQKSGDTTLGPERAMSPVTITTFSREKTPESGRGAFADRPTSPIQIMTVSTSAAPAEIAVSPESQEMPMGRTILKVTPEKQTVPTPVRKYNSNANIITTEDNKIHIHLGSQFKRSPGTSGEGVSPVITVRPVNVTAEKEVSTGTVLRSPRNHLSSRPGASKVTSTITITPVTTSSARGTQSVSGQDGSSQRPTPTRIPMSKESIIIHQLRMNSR

B1: recombinant hFLNc d19–21, wild type (domain or fragment, human, UniProt Q14315 2036-2410, looked up)
chain: SEIGDASKVRVWGKGLSEGHTFQVAEFIVDTRNAGYGGLGLSIEGPSKVDINCEDMEDGTCKVTYCPTEPGTYIINIKFADKHVPGSPFTVKVTGEGRMKESITRRRQAPSIATIGSTCDLNLKIPGNWFQMVSAQERLTRTFTRSSHTYTRTERTEISKTRGGETKREVRVEESTQVGGDPFPAVFGDFLGRERLGSFGSITRQQEGEASSQDMTAQVTSPSGKVEAAEIVEGEDSAYSVRFVPQEMGPHTVAVKYRGQHVPGSPFQFTVGPLGEGGAHKVRAGGTGLERGVAGVPAEFSIWTREAGAGGLSIAVEGPSKAEIAFEDRKDGSCGVSYVVQEPGDYEVSIKFNDEHIPDSPFVVPVASLSDDARR
notes: human filamin-C, Ig-like domains 19–21; also called wildtype hFLNc d19–21; non-phosphorylated hFLNc d19–21

Experiments:
[1] = target: FILIP1 (filamin A-interacting protein 1), carboxy-terminus (CT) carboxy-terminus (CT) (UniProt Q7Z7B0); test: anti-Myc co-immunoprecipitation, quantitative immunoblot; conditions: reference: wild type; sites S2233,S2236
[2] = target: FILIP1 (filamin A-interacting protein 1), carboxy-terminus (CT) carboxy-terminus (CT) (UniProt Q7Z7B0); test: co-immunoprecipitation, quantitative immunoblot; conditions: reference: wild type; sites S2233,S2236
[3] = target: T1, FILIP1 CT-GFP (expressed in HEK293 …); test: fluorescence correlation spectroscopy (competition); recombinant FLNc d19–21 (44,000 to 21 nM) or its DD mutant (60,000 to 78 nM) titrated to HEK293T lysate with FILIP1 CT-GFP bound to Myc-hFLNc d18–21 DD; PBS pH 7.4, 0.05% Tween-20, 20 °C; conditions: one partner purified

Molecule | binding against the reference [1] | binding against the reference [2] | Kd [3] [µM]
human filamin-C (hFLNc) Ig-like domains 18-21 (d18–21) (from UniProt Q14315) AA (S2233A/S2236A) | stronger | stronger | –
B1 | – | – | 1.17

From article PMC7244511, “Phosphoproteomics identifies dual-site phosphorylation in an extended basophilic motif regulating FILIP1-mediated degradation of filamin-C” (Communications Biology, 2020)
